SRET50 and BRET50 data for two substances are collected here from PMC9875831.

Read-outs that look alike come from different tables or passages of the source.

What all share (assay): FRET or BRET
Background: In BRET a luciferase serves as donor, and the signal depends on an acceptor being close.

In test [1] the target is A2AR-D2R heteromer (A2AR-Rluc with D2R-GFP2) (human) (UniProt P29274).
For test [2] the target is unchanged. The source holds these as a separate data set.
Test [3] concerns the target A2AR-Rluc (adenosine A2A receptor fused to Renilla luciferase) (human) (UniProt P29274).
Test [4] deals with D2R-Rluc (dopamine D2 receptor, long isoform, fused to Renilla luciferase) (human) (UniProt P14416).
Chain of UniProt P14416 (P14416 whole entry, the tested form may be a part, canonical isoform): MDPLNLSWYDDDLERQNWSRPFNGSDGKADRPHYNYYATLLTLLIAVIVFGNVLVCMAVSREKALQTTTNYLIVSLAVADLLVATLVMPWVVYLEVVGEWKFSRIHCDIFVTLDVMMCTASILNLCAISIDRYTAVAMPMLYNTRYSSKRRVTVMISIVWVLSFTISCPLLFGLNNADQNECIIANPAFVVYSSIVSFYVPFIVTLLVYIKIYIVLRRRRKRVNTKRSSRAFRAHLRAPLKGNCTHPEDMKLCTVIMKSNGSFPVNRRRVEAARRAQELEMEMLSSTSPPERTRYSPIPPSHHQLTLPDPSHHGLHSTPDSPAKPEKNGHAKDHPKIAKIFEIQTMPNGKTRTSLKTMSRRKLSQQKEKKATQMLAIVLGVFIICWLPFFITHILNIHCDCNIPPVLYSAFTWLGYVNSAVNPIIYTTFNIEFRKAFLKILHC

With “NCS-1-YFP (neuronal calcium sensor 1 fused to yellow fluorescent protein) (from UniProt P62166 1-190) (natural protein)”, the SRET50 in test [1] was 24.1; in test [2] it was 8.9. For the same substance, the BRET50 in test [3] came out at 42.4; in test [4], 23.4.
In the same order, the values of “calneuron-1-YFP (from UniProt Q9BXU9 1-261) (natural protein)” are 38.5, 25.1, 40.5 and 25.7.
